In patent US20200254053A1 one finds Hemolysis in presence of PA-dPEG24 (Abs 412 nm), type-O donor #1 plasma with B+ erythrocytes (0.747 without peptide) and inhibition of hemolysis, type-O plasma with type-B erythrocytes, dose response (FIG. 8) data, which are given here for one molecule.

No end group written: not given here. dPEG24 = 24 PEG moieties Where only a bound is given, the exact number is not on record here.

This assay has as its target C1q as present in the human serum or plasma of the hemolytic assays (human) (UniProt P02745). Nature of the assay: cell-based or functional assay.
Sequence of UniProt P02745 (P02745 23-245 limits assumed, chain 1 of 3): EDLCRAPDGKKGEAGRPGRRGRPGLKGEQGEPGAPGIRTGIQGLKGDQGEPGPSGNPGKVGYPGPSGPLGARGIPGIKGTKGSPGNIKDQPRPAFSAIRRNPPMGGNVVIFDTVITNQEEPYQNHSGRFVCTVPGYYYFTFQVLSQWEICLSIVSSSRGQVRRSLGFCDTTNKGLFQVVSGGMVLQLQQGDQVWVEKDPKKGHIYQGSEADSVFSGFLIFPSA
Sequence of UniProt P02745 (P02746 28-253 limits assumed, chain 2 of 3, further chain): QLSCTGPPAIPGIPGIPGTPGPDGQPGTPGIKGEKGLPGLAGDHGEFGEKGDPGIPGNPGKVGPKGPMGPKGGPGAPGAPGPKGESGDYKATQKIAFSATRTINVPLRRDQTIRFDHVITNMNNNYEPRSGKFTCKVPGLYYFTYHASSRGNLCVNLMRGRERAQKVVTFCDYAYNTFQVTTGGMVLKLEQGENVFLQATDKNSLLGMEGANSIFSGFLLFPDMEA
Sequence of UniProt P02745 (P02747 29-245 limits assumed, chain 3 of 3, further chain): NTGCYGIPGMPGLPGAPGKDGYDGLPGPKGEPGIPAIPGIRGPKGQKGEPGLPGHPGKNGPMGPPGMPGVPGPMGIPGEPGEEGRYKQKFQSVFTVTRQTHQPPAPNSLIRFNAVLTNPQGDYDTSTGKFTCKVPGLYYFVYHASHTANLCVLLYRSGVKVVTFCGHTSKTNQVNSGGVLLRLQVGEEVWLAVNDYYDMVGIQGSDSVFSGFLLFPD

B1: PA-dPEG24 (peptide)
peptide: IALILEPICCQERAA-dPEG24
modifications: cysteine pairing not given here
On to B1, for which the Hemolysis in presence of PA-dPEG24 (Abs 412 nm), type-O donor #1 plasma with B+ erythrocytes (0.747 without peptide) was 0.008 Abs 412 nm and the inhibition of hemolysis, type-O plasma with type-B erythrocytes, dose response (FIG. 8) was more than 95%.
